# doi:10.1101/2020.02.13.948224 (bioRxiv, 2020)
# Tests used:
# mouse RBPj (aa 53-474) = mouse RBPj (aa 53-474) (mouse, UniProt P31266 53-474); assay: native gel or EMSA
# native gel or EMSA = target: the molecule itself; assay: native gel or EMSA
# mouse RBPj (aa 53-474), sequence (P31266 53-474): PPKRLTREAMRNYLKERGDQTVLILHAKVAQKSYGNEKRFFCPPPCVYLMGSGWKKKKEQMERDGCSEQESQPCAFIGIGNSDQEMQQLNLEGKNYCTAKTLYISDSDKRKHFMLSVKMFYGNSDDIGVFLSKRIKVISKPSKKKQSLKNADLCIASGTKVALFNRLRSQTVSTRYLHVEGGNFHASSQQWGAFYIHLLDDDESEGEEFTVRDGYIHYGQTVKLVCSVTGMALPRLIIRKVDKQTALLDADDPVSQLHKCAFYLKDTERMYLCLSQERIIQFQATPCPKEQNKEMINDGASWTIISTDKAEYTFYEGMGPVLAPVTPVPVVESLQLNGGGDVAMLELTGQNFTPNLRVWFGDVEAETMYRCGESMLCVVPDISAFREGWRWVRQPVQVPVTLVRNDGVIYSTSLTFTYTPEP
binding result (mouse RBPj (aa 53-474)),Binder,binding result (native gel or EMSA)
binds,"human SMT3-MAML1 (aa 1-280) (domain or fragment, UniProt Q92585 1-280, looked up) MVLPTCPMAEFALPRHSAVMERLRRRIELCRRHHSTCEARYEAVSPERLELERQHTFALHQRCIQAKAKRAGKHRQPPAATAPAPAAPAPRLDAADGPEHGRPATHLHDTVKRNLDSATSPQNGDQQNGYGDLFPGHKKTRREAPLGVAISSNGLPPASPLGQSDKPSGADALQSSGKHSLGLDSLNKKRLADSSLHLNGGSNPSESFPLSLNKELKQEPVEDLPCMITGTVGSISQSNLMPDLNLNEQEWKELIEELNRSVPDEDMKDLFNEDFEEKKD",
binds,"mouse N1ICD (aa 1744-2113) (domain or fragment, UniProt Q01705 1744-2113, looked up) VLLSRKRRRQHGQLWFPEGFKVSEASKKKRREPLGEDSVGLKPLKNASDGALMDDNQNEWGDEDLETKKFRFEEPVVLPDLSDQTDHRQWTQQHLDAADLRMSAMAPTPPQGEVDADCMDVNVRGPDGFTPLMIASCSGGGLETGNSEEEEDAPAVISDFIYQGASLHNQTDRTGETALHLAARYSRSDAAKRLLEASADANIQDNMGRTPLHAAVSADAQGVFQILLRNRATDLDARMHDGTTPLILAARLAVEGMLEDLINSHADVNAVDDLGKSALHWAAAVNNVDAAVVLLKNGANKDMQNNKEETPLFLAAREGSYETAKVLLDHFANRDITDHMDRLPRDIAQERMHHDIVRLLDEYNLVRSPQ",binds
binds,"mouse N1^RAICD (aa 1744-2113) (domain or fragment, UniProt Q01705 1744-2113, looked up) VLLSRKRRRQHGQLWFPEGFKVSEASKKKRREPLGEDSVGLKPLKNASDGALMDDNQNEWGDEDLETKKFRFEEPVVLPDLSDQTDHRQWTQQHLDAADLRMSAMAPTPPQGEVDADCMDVNVRGPDGFTPLMIASCSGGGLETGNSEEEEDAPAVISDFIYQGASLHNQTDRTGETALHLAARYSRSDAAKRLLEASADANIQDNMGRTPLHAAVSADAQGVFQILLRNAATDLDARMHDGTTPLILAARLAVEGMLEDLINSHADVNAVDDLGKSALHWAAAVNNVDAAVVLLKNGANKDMQNNKEETPLFLAAREGSYETAKVLLDHFANRDITDHMDRLPRDIAQERMHHDIVRLLDEYNLVRSPQ",
